Source: patent publication US20130040894A1, “INHIBITION OR ACTIVATION OF SERINE/THREONINE ULK3 KINASE ACTIVITY” (TALLINN UNIVERSITY OF TECHNOLOGY, priority 2009, published 2013)

T1: FLAG-tagged GLI1 (full length)
T1 chain: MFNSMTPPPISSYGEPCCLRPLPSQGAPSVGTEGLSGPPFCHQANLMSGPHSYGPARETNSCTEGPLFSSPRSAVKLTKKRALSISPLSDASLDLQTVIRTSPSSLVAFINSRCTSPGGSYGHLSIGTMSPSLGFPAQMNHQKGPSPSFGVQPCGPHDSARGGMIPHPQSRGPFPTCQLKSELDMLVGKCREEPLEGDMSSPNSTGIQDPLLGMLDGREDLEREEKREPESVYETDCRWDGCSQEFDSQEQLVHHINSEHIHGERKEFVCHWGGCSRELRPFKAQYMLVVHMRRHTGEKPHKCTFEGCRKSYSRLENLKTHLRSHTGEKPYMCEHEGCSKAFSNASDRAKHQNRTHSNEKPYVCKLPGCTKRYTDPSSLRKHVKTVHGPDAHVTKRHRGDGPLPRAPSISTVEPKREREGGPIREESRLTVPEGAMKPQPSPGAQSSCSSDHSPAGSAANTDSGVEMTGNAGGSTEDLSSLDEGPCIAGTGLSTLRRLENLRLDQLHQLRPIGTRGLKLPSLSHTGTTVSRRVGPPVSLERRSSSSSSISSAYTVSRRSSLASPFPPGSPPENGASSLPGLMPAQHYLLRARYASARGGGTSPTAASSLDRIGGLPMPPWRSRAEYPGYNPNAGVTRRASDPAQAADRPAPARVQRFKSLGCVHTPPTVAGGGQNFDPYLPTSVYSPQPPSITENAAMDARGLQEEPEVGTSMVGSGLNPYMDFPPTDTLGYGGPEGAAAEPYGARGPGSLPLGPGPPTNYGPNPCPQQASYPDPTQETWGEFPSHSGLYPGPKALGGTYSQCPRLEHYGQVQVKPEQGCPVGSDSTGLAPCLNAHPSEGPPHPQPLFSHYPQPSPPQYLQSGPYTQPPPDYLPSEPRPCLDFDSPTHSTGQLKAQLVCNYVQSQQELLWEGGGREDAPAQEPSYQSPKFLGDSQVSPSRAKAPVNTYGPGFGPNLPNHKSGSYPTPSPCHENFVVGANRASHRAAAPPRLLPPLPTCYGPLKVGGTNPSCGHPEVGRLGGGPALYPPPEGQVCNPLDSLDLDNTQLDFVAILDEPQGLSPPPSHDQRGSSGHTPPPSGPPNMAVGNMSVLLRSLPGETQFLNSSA

T2: His-tagged GLI1 fragment, amino acids 726-1106
T2 chain: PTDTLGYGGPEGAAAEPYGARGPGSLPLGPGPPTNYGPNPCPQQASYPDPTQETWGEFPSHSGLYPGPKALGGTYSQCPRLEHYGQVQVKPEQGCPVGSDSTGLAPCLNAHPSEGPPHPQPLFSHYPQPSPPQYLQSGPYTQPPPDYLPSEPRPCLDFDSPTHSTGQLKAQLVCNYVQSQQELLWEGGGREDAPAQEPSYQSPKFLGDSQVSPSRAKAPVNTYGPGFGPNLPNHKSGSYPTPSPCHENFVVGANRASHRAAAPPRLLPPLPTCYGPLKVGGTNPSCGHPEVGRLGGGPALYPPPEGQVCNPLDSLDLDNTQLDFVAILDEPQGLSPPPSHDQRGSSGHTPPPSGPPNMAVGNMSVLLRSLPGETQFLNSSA


Key:
[1] = target: T1, FLAG-tagged GLI1 (full length)
[2] = target: T2, His-tagged GLI1 fragment, amino acids …
GLI2 = assay: In vitro kinase assay, phosphorylation of GLI2; format: biochemical; conditions: FLAG-tagged GLI2 immunoprecipitated from HEK293 cells
Protocol: HEK293 cells were transfected with 13.5 μg of FLAG-tagged constructs expressed GLI1, GLI2, GLI3, ULK3, ULK3(K44R), ULK3(K139R) or FLAG-CMV-4 empty vector on 10 cm plates. The cells were lysed with 0.5 ml of Lysis Buffer (50 mM Tris HCl, pH 7.4, 150 mM NaCl, 1 mM EDTA, 1% Triton X-100) containing protease inhibitor cocktail (PIC) (Roche Applied Science). The lysates were centrifuged for 15 min at 4° C. and 15000 g, and the supernatants were used for immunoprecipitation (IP). IP was performed using anti-FLAG-M2 affinity gel (Sigma-Aldrich) in batch format according to the manufacture's instructions. Immune complexes were washed three times with 500 μl of Kinase Buffer (KB) (50 mM HEPES, pH 7.4, 20 mM MgCl2, 25 μM ATP) and resuspended in 12.5 μl of KB. One fifth of the immuno-complexes was subjected to WB and the rest was used for the kinase assay.
Kinase reactions were carried out in KB in a total volume of 20 μl of in the presence of 1 μCi of [γ-^32P]ATP per reaction. We used 1 μl of the immunoprecipitated ULK3, ULK3(K44R) or ULK3(K139R) mixed with 5 μl of the GLI-M2 immunocomplexes or 5 μl of bacterially expressed and purified His-GLI1 fragments. Kinase reactions were held at 30° C. for 30 min and terminated by adding of 5 μl of 4× Laemmli Sample Buffer. Proteins were resolved by SDS-PAGE. […]

phosphorylation of GLI2 (GLI2) | Molecule | in vitro kinase assay, phosphorylation signal (32P autoradiography) [1] | in vitro kinase assay, phosphorylation of a His-tagged GLI1 fragment [2]
 | FLAG-tagged wild-type ULK3 (human serine/threonine kinase ULK3) (protein) MAGPGWGPPRLDGFILTERLGSGTYATVYKAYAKKDTREVVAIKCVAKKSLNKASVENLLTEIEILKGIRHPHIVQLKDFQWDSDNIYLIMEFCAGGDLSRFIHTRRILPEKVARVFMQQLASALQFLHERNISHLDLKPQNILLSSLEKPHLKLADFGFAQHMSPWDEKHVLRGSPLYMAPEMVCQRQYDARVDLWSMGVILYEALFGQPPFASRSFSELEEKIRSNRVIELPLRPLLSRDCRDLLQRLLERDPSRRISFQDFFAHPWVDLEHMPSGESLGRATALVVQAVKKDQEGDSAAALSLYCKALDFFVPALHYEVDAQRKEAIKAKVGQYVSRAEELKAIVSSSNQALLRQGTSARDLLREMARDKPRLLAALEVASAAMAKEEAAGGEQDALDLYQHSLGELLLLLAAEPPGRRRELLHTEVQNLMARAEYLKEQVKMRESRWEADTLDKEGLSESVRSSCTLQ | GLI1 and GLI3 were also phosphorylated by ULK3, but with significantly lower intensity as compared to GLI2 | Two of them-GLI1(1-433) and GLI1(726-1106)-were phosphorylated by ULK3
strongest phosphorylation signal | ULK3: human serine/threonine kinase, 472 amino acids (SEQ ID NO: 1), overexpressed from cloned cDNA or immunopurified FLAG-tagged (protein, listed as Homo sapiens, PEPTIDE (1)..(472) ULK3) MAGPGWGPPRLDGFILTERLGSGTYATVYKAYAKKDTREVVAIKCVAKKSLNKASVENLLTEIEILKGIRHPHIVQLKDFQWDSDNIYLIMEFCAGGDLSRFIHTRRILPEKVARVFMQQLASALQFLHERNISHLDLKPQNILLSSLEKPHLKLADFGFAQHMSPWDEKHVLRGSPLYMAPEMVCQRQYDARVDLWSMGVILYEALFGQPPFASRSFSELEEKIRSNRVIELPLRPLLSRDCRDLLQRLLERDPSRRISFQDFFAHPWVDLEHMPSGESLGRATALVVQAVKKDQEGDSAAALSLYCKALDFFVPALHYEVDAQRKEAIKAKVGQYVSRAEELKAIVSSSNQALLRQGTSARDLLREMARDKPRLLAALEVASAAMAKEEAAGGEQDALDLYQHSLGELLLLLAAEPPGRRRELLHTEVQNLMARAEYLKEQVKMRESRWEADTLDKEGLSESVRSSCTLQ |  | 
